The record followed here is publication PMC7037651, “Chemically Crosslinked Bispecific Antibodies for Cancer Therapy: Breaking from the Structural Restrictions of the Genetic Fusion Approach” (International Journal of Molecular Sciences, 2020).

For assay [1], the target named is soluble EGFR (sEGFR) (UniProt P00533). In words: SPR; Biacore 2000; sEGFR immobilised on a CM5 chip at the higher amount (2605 to 2833 RU); PBS with 0.005% Tween20; scFv monomer or dimer injected for 120 s at 10 to 250 nM; global fit, 1:1 Langmuir model. Background: SPR reads the build-up and loss of mass on a sensor chip optically.
Assay [2] has the same target. Description: SPR; Biacore 2000; sEGFR immobilised on a CM5 chip at the lower amount (1073 to 1122 RU); PBS with 0.005% Tween20; scFv monomer or dimer injected for 120 s at 10 to 250 nM; global fit, 1:1 Langmuir model.
For assay [3] the target is unchanged. In words: SPR; Biacore 2000; sEGFR immobilised on a CM5 chip (amount not given for Tables 2 and 5); running buffer PBS with 0.005% Tween20; scFv monomer or dimer injected for 120 s at 10 to 250 nM; global fit, 1:1 Langmuir model.
For assay [4], the target named is T1, soluble EGFR (sEGFR) (Homo sapiens (assumed; EGFR on human …, UniProt P00533).
T1 construct: soluble epidermal growth factor receptor (sEGFR); also called epidermal growth factor receptor; immobilized EGFR; source: prepared as described previously [28]
Described as above. As to conditions: both partners purified.

Assay [5] deals with T1, soluble EGFR (sEGFR). Description: SPR; Biacore 2000; sEGFR immobilised on a CM5 chip at the lower amount (1073 to 1122 RU); PBS with 0.005% Tween20; scFv monomer or dimer injected for 120 s at 10 to 250 nM; global fit, 1:1 Langmuir model. The following applies: both partners purified.
Assay [6] deals with T1, soluble EGFR (sEGFR). In words: SPR; Biacore 2000; sEGFR immobilised on a CM5 chip at the higher amount (2605 to 2833 RU); PBS with 0.005% Tween20; scFv monomer or dimer injected for 120 s at 10 to 250 nM; global fit, 1:1 Langmuir model. As to conditions: both partners purified.
The target in assay [7] is T2, EGFR on A431 cells (Homo sapiens (A431 cells), UniProt P00533).
T2 construct: epidermal growth factor receptor on A431, a human epidermoid carcinoma line; also called target-expressing cells; A431 (EGFR-positive tumor cell line); source: endogenous, on A431 cells
Description: flow cytometry on cells; competitive binding: 10^6 A431 cells mixed with non-labeled scFv or dimer (50 pmol), washed, then various amounts of FITC-labeled wild-type h528 scFv added; on ice. The following applies: one partner purified.

Numbering of substitutions follows the chain as printed.

What is called Kd is a measure of binding affinity in units of concentration. By koff is commonly meant a measure of how fast the partners let go of each other. A higher koff goes with fast dissociation. The kon is the rate constant with which the complex forms. Low readings indicate slow association, high ones fast association.

In assay [1], “side–side bivalent h528 scFv dimer with C6 linker” displayed a Kd of 34 nM.

Regarding “tail–tail bivalent h528 scFv dimer with C6 linker”, in assay [2], the Kd was 18 nM, the koff is 0.0012 s⁻¹ and the kon is 62000 M⁻¹ s⁻¹. Besides, in assay [1], the equilibrium dissociation constant (Kd) came out at 23 nM, the koff amounted to 0.0015 s⁻¹ and the association rate constant (kon) turned out to be 63000 M⁻¹ s⁻¹.

“side–side bivalent h528 scFv dimer with C1 linker” came in with a dissociation constant Kd in assay [2] of 78 nM.

Regarding “side–tail bivalent h528 scFv dimer with C1 linker”, in assay [2], the Kd came out at 149 nM, the dissociation rate constant (koff) amounted to 0.005 s⁻¹ and the kon was found to be 34000 M⁻¹ s⁻¹. In assay [1], this molecule registered a dissociation constant (Kd) of 109 nM, a koff of 0.0047 s⁻¹ and an association rate constant (kon) of 43000 M⁻¹ s⁻¹.

In turn, “side–tail bivalent h528 scFv dimer with C6 linker” gave a Kd in assay [2] of 159 nM.

B1: wild-type humanized 528 (h528) scFv (scFv, V domains shown)
VH: QVQLVQSGAEVKKPGASVKVSCKASGYTFTSYWMHWVRQAPGQGLEWMGNIYPGSGGTNYAEKFKNRVTMTRDTSISTAYMELSRLRSDDTAVYYCARSGGPYFFDYWGQGTLVTVSS
VL: DIVMTQSPLSLPVTPGEPASISCRSSQNIVHNNGITYLEWYLQKPGQSPQLLIYKVSDRFSGVPDRFSGSGSGTDFTLKISRVEAEDVGVYYCFQGSHIPPTFGQGTKVEIK
Regarding B1, in assay [3], the Kd was determined as 26 nM, the off-rate (koff) is 0.0052 s⁻¹ and the on-rate constant (kon) came out at 196000 M⁻¹ s⁻¹.

B2: 0KCDR h528 scFv (scFv, V domains shown)
VH: B1 VH with K63E, K65Q
VL: B1 VL with K55Q
notes: linker (GGGGS)3; it looks like Kabat numbering; also called 0KCDR scFv
In assay [4], B2 yielded a Kd of 38 nM, an off-rate constant (koff) of 0.0054 s⁻¹ and a kon of 141000 M⁻¹ s⁻¹.

B3: HK19-0K h528 scFv (scFv, V domains shown)
VH: B1 VH with K12A, K13E, K23A, K63E, K65Q
VL: B1 VL with K44R, K55Q, K79T, K108E, K112E
notes: lysine kept at H19; linker (GGGGS)3; 0K scFv with the 19th residue of VH returned to lysine; also called HK19-0K scFv; KH19-0K scFv
For B3, in assay [5], binding was put at a Kd of 144 nM, the off-rate constant (koff) was 0.0075 s⁻¹ and the association rate constant (kon) was 52000 M⁻¹ s⁻¹. In assay [6], this molecule showed a dissociation constant (Kd) of 108 nM, an off-rate (koff) of 0.0075 s⁻¹ and a kon of 69000 M⁻¹ s⁻¹. In assay [4], this molecule showed a dissociation constant (Kd) of 135 nM, a koff of 0.0079 s⁻¹ and an on-rate (kon) of 60000 M⁻¹ s⁻¹.

B4: FITC-labeled wild-type h528 scFv (scFv, V domains shown)
VH: B1 VH
VL: B1 VL
notes: linker (GGGGS)3; m4 with a fluorescein label; also called fluorescently labeled wild-type scFv; labeled wild-type scFv
With B4, in assay [7], the binding result is “binds”.

B5: LK103-0K h528 scFv (scFv, V domains shown)
VH: B1 VH with K12A, K13E, K19Q, K23A, K63E, K65Q
VL: B1 VL with K44R, K55Q, K79T, K112E
notes: linker (GGGGS)3; lysine kept at L103; also called LK103-0K scFv
In the case of B5, in assay [5], the Kd came to 221 nM, the koff stood at 0.0086 s⁻¹ and the on-rate (kon) was determined as 39000 M⁻¹ s⁻¹. In assay [6], this molecule displayed an equilibrium dissociation constant (Kd) of 207 nM, a koff of 0.0089 s⁻¹ and a kon of 43000 M⁻¹ s⁻¹. For the same molecule, in assay [4], the Kd was found to be 205 nM, the koff came to 0.0086 s⁻¹ and the kon was 42000 M⁻¹ s⁻¹.

B6: 0K h528 scFv (scFv, V domains shown)
VH: B1 VH with K12A, K13E, K19Q, K23A, K63E, K65Q
VL: B1 VL with K44R, K55Q, K79T, K108E, K112E
notes: linker (GGGGS)3; it looks like Kabat numbering; also called h528 scFv without lysine in the CDR and FR
In assay [4], B6 gave a dissociation constant Kd of 137 nM, an off-rate (koff) of 0.0082 s⁻¹ and an on-rate (kon) of 60000 M⁻¹ s⁻¹.
